Reference: PMC9898751 (The Journal of Biological Chemistry, 2022)
No end group written: not given here.

Biological target: T1, PHF2(1–70), PHD domain of human PHF2 (residues 1–70) (human, UniProt O75151 1-70)
T1 sequence: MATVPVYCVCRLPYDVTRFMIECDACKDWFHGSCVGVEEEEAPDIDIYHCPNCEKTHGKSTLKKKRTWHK
Assay: ITC

With ARTK(me3)QTARKSTG [H3(1-12)K4me3 peptide (12-mer of the N-terminal tail of histone H3, trimethylated at lysine 4)] the Kd was 640 nM.
